Substitutions are numbered along the chain they refer to.
Target: 柯萨奇A6型病毒(CVA6)病毒颗粒抗原, 毒株TW-2007-00141 (Coxsackievirus A6 (CVA6), strain TW-2007-00141)
Test: cell-based or functional assay

B1: 单克隆抗体6C8 (antibody, V domains shown)
VH: EVQLQQSGPELVRPGASVRISCKASGYSFTGYYMHWVKQSHVKSLEWIGRINPHNGVPNYNQNFKDKATLTVDKSSTTAYMELHSLTSEDSAVYFCVSGSSDFDYWGRGATLTVS
VL: DIQMTQSPSSLSASLGERVTLTCRASQEIGAFLGWLQQKPDGIIKRLIYAASVLDSGVPKRFSGSRSGSDYSLTISSLESEDFADYYCLQYVSFPRTFGGGTKLEIK
For B1, the 中和效价 (最大稀释倍数 (可以抑制50%以上细胞孔病变)) was 4096.

B2: 单克隆抗体4D6 (antibody, V domains shown)
VH: EVQLQQSGPELVKPGASVKISCKASGYSFTGYYMHWVKQSHEKSLEWVGRINPHNGVADYNQILKGKAALTVDKSSTTAYMEFHSLTSEDSAVYYCVSGSSDFDYWGQGTPLTVS
VL: B1 VL with T20S, G30R, A31S, I43T, A51V, V53N, V92I
Binder B2 has a 中和效价 (最大稀释倍数 (可以抑制50%以上细胞孔病变)) of 8192.

B3: 单克隆抗体2B5 (antibody, V domains shown)
VH: EVHLQQSGPELVKPGSSVKISCKASGYSFTGYYIHWVKQNHLKSLTWVGRINPHNGVADYDQILRGRAALTVDKSSTTAYLEFHSLTYEDSAVYFCVSGSNDFDYWGQGTPLTVS
VL: B1 VL with T20S, G30R, A31S, I43T, A51V, V53N, V92I
Work on B3 yielded a 中和效价 (最大稀释倍数 (可以抑制50%以上细胞孔病变)) of 4096.

Reference: patent CN113549147A
